In the supplement of paper PMC9112550, “Optimization of the antimicrobial peptide Bac7 by deep mutational scanning” (BMC Biology, 2022):

Tested on: Escherichia coli TOP10
Experiment: shrunken log2 fold change of peptide-encoding DNA abundance (4.5 h post-induction vs induction); higher = less antimicrobial activity (less host growth inhibition)
Details: time post-induction: 4.5 h; library: site-saturation at positions 5, 18, 19, 20
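Further: peptides expressed intracellularly from a pBAD plasmid library in pooled LB shake-flask culture, induced with 0.3% L-arabinose, DNA abundance read by NGS, three biological replicates, DESeq2 with apeglm shrinkage.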

Sequence | shrunken log2 fold change
RRIRWRPPRLPRPRPRPVVWPRP | 0.626
RRIRLRPPRLPRPRPRPLFYPRP | -0.238
RRIRRRPPRLPRPRPRPLPNPRP | -0.0597
RRIRNRPPRLPRPRPRPVYEPRP | -0.027
RRIRFRPPRLPRPRPRPPMDPRP | -0.155
RRIRKRPPRLPRPRPRPVELPRP | 0.111
RRIRKRPPRLPRPRPRPVIIPRP | 0.0356
RRIRKRPPRLPRPRPRPKSPPRP | 0.385
RRIRQRPPRLPRPRPRPVNVPRP | 0.0398
RRIRCRPPRLPRPRPRPFRQPRP | -0.0498
RRIRNRPPRLPRPRPRPQANPRP | 0.202
RRIRVRPPRLPRPRPRPPTEPRP | 0.273
RRIRYRPPRLPRPRPRPHYPPRP | -1.84
RRIRQRPPRLPRPRPRPDHAPRP | 0.014
RRIRRRPPRLPRPRPRPEPVPRP | 0.367
RRIRRRPPRLPRPRPRPHHDPRP | -0.298
RRIRRRPPRLPRPRPRPKMHPRP | 0.443
RRIRVRPPRLPRPRPRPAPDPRP | 0.377
RRIRCRPPRLPRPRPRPLYMPRP | -0.807
RRIRWRPPRLPRPRPRPHIKPRP | -0.243

Sequence | shrunken log2 fold change
RRIRYRPPRLPRPRPRPLCSPRP | -0.0549
RRIRWRPPRLPRPRPRPFGKPRP | -0.578
RRIRRRPPRLPRPRPRPFMHPRP | 0.0444
RRIRDRPPRLPRPRPRPRGMPRP | 0.0251
RRIRARPPRLPRPRPRPAWKPRP | 0.398
RRIRKRPPRLPRPRPRPYYQPRP | -0.194
RRIRDRPPRLPRPRPRPFTTPRP | -0.132
RRIRCRPPRLPRPRPRPQQCPRP | -0.219
RRIRNRPPRLPRPRPRPGESPRP | -0.111
RRIRLRPPRLPRPRPRPACQPRP | -0.0858
RRIRRRPPRLPRPRPRPFKTPRP | -0.0587
RRIRRRPPRLPRPRPRPGQYPRP | -0.16
RRIRDRPPRLPRPRPRPNFFPRP | 0.144
RRIRARPPRLPRPRPRPAAGPRP | 0.78
RRIRNRPPRLPRPRPRPGQVPRP | 0.0381
RRIRWRPPRLPRPRPRPHMAPRP | 0.00551
RRIRWRPPRLPRPRPRPCANPRP | 0.0268
RRIRKRPPRLPRPRPRPAHVPRP | 0.03
RRIRNRPPRLPRPRPRPSPVPRP | 0.00108
RRIRSRPPRLPRPRPRPIPHPRP | -0.184

Sequence | shrunken log2 fold change
RRIRRRPPRLPRPRPRPLNHPRP | -0.0852
RRIRVRPPRLPRPRPRPDWYPRP | -0.0357
RRIRGRPPRLPRPRPRPHMSPRP | 1.32
RRIRARPPRLPRPRPRPTAKPRP | 1.36
RRIRTRPPRLPRPRPRPQCRPRP | -0.259
RRIRRRPPRLPRPRPRPHMTPRP | 0.00051
RRIRNRPPRLPRPRPRPKVRPRP | -0.0024
RRIRFRPPRLPRPRPRPFMHPRP | -0.147
RRIRWRPPRLPRPRPRPLKIPRP | -0.195
RRIRERPPRLPRPRPRPMCGPRP | -0.0439
RRIRIRPPRLPRPRPRPCSNPRP | -0.11
RRIRWRPPRLPRPRPRPKYRPRP | 0.00658
RRIRYRPPRLPRPRPRPDGWPRP | 0.212
RRIRKRPPRLPRPRPRPLMCPRP | -0.122
RRIRSRPPRLPRPRPRPSMIPRP | -0.625
RRIRLRPPRLPRPRPRPSYTPRP | -0.792
RRIRPRPPRLPRPRPRPPRHPRP | 0.278
RRIRDRPPRLPRPRPRPLDQPRP | 0.0626
RRIRWRPPRLPRPRPRPSLQPRP | 0.0895
RRIRGRPPRLPRPRPRPNVPPRP | 0.0564
